PMC4176167, “Solution structure and intramolecular exchange of methyl-cytosine binding domain protein 4 (MBD4) on DNA suggests a mechanism to scan for mCpG/TpG mismatches”

Key:
cMBD2 MBD (NMR) [1] = molecular target: T1, cMBD2 MBD (NMR) (UniProt Q5EFL0 2-70); assay: NMR (TROSY HSQC); slow to intermediate exchange between sites; SPR running buffer: 10 mM HEPES pH 7.4, 50 mM NaCl, 3 mM MgCl2, 0.1 mM EDTA, 1 mM DTT, 0.1% BSA, 0.005% polysorbate 20 (samples prepared at pH 6.5); temperature not given; NMR buffer not given (low salt, up to 100 mM NaCl in titration); conditions: protein: recombinant; tags: tags removed by thrombin; blunt
Trx-His6-MBD4 MBD (SPR) = Trx-His6-MBD4 MBD (SPR) (Homo sapiens, UniProt O95243 80-148); assay: SPR; SPR running buffer: 10 mM HEPES pH 7.4, 50 mM NaCl, 3 mM MgCl2, 0.1 mM EDTA, 1 mM DTT, 0.1% BSA, 0.005% polysorbate 20 (samples prepared at pH 6.5); temperature not given; NMR buffer not given (low salt, up to 100 mM NaCl in titration); conditions: protein: recombinant, tags: N-terminal thioredoxin and His6 fusion (modified pET32a), retained for SPR, label: 3' biotin on strand 1 (SPR only), blunt
[2] = molecular target: Trx-His6-MBD4 MBD Y109F (SPR) (Homo sapiens, UniProt O95243 80-148, Y109F); assay: as above; conditions: protein: recombinant, tags: N-terminal thioredoxin and His6 fusion, retained for SPR, label: 3' biotin on strand 1 (SPR only), blunt
cMBD2 MBD (NMR) [3] = molecular target: T1, cMBD2 MBD (NMR); assay: NMR (HSQC, Nz-exchange); SPR running buffer: 10 mM HEPES pH 7.4, 50 mM NaCl, 3 mM MgCl2, 0.1 mM EDTA, 1 mM DTT, 0.1% BSA, 0.005% polysorbate 20 (samples prepared at pH 6.5); temperature not given; NMR buffer not given (low salt, up to 100 mM NaCl in titration); conditions: protein: recombinant; tags: tags removed by thrombin; blunt
cMBD2 MBD (NMR) [4] = molecular target: T1, cMBD2 MBD (NMR); assay: NMR (TROSY HSQC); fast exchange between sites; SPR running buffer: 10 mM HEPES pH 7.4, 50 mM NaCl, 3 mM MgCl2, 0.1 mM EDTA, 1 mM DTT, 0.1% BSA, 0.005% polysorbate 20 (samples prepared at pH 6.5); temperature not given; NMR buffer not given (low salt, up to 100 mM NaCl in titration); conditions: protein: recombinant; tags: tags removed by thrombin; blunt
[5] = one G:T mismatch (strand 1 G10, strand 2 T8)

Trx-His6-MBD4 MBD Y109F (SPR), sequence (O95243 80-148 Y109F): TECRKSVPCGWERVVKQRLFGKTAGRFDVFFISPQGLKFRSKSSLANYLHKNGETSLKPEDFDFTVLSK
T1 sequence (Q5EFL0 entry or part of it): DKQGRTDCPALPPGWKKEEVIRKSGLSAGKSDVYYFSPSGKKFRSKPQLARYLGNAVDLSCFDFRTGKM
Trx-His6-MBD4 MBD (SPR), sequence (O95243 80-148): as the sequence (O95243 80-148 Y109F) above, with F30Y counted along it

B1: Tandem (30 bp) (dsDNA)
DNA 1: CACGGATCGGCTCCCCCGAGTCGGTCCCGC
DNA 2: GCGGGACCGACTCGGGGGAGCCGATCCGTG
modifications: 5-methyl-C at strand 1 positions 8 and 22 and strand 2 positions 8 and 22
B1: binds (cMBD2 MBD (NMR) [1]).

B2: mCpG/TpG mismatch (17 bp) (dsDNA)
DNA 1: GAGGCGCTCGGCGGCAG
DNA 2: CTGCCGCTGAGCGCCTC
modifications: 5-methyl-C at strand 1 position 9
B2 gave a Kd (Trx-His6-MBD4 MBD (SPR); [5]) of 11.5 ± 1.2 µM and a Kd [2, 5] of 14 ± 1.4 µM.

B3: mCpG (10 bp), wild-type (dsDNA)
DNA 1: GGATCGGCTC
DNA 2: GAGCCGATCC
modifications: 5-methyl-C at position 5 of both strands
B3: binds (cMBD2 MBD (NMR) [3]).

B4: hmCpG (17 bp) (dsDNA)
DNA 1: GAGGCGCTCGGCGGCAG
DNA 2: CTGCCGCCGAGCGCCTC
modifications: 5-hydroxymethyl-C at strand 1 position 9 and strand 2 position 8
B4 gave a Kd [2] of 16 ± 3 µM.

B5: CpG (17 bp) (dsDNA)
DNA 1: GAGGCGCTCGGCGGCAG
DNA 2: CTGCCGCCGAGCGCCTC
B5 showed a Kd [2] of 19.6 ± 3.5 µM.

B6: Tandem (20 bp) (dsDNA)
DNA 1: GGATCGGCTCGGACCGACTC
DNA 2: GAGTCGGTCCGAGCCGATCC
modifications: 5-methyl-C at strand 1 positions 5 and 15 and strand 2 positions 5 and 15
B6: binds (cMBD2 MBD (NMR) [4]).

B7: Inverted (10 bp) (dsDNA)
DNA 1: GGACCGACTC
DNA 2: GAGTCGGTCC
modifications: 5-methyl-C at position 5 of both strands
B7: binds (cMBD2 MBD (NMR) [3]).

B8: mCpG (17 bp) (dsDNA)
DNA 1: GAGGCGCTCGGCGGCAG
DNA 2: CTGCCGCCGAGCGCCTC
modifications: 5-methyl-C at strand 1 position 9 and strand 2 position 8
For B8, the Kd (Trx-His6-MBD4 MBD (SPR)) was 6.4 ± 1.5 µM and the Kd [2] was 7.9 ± 1.6 µM.
